Target: T1, FLAG-tagged androgen receptor (AR), P10275
T1 chain: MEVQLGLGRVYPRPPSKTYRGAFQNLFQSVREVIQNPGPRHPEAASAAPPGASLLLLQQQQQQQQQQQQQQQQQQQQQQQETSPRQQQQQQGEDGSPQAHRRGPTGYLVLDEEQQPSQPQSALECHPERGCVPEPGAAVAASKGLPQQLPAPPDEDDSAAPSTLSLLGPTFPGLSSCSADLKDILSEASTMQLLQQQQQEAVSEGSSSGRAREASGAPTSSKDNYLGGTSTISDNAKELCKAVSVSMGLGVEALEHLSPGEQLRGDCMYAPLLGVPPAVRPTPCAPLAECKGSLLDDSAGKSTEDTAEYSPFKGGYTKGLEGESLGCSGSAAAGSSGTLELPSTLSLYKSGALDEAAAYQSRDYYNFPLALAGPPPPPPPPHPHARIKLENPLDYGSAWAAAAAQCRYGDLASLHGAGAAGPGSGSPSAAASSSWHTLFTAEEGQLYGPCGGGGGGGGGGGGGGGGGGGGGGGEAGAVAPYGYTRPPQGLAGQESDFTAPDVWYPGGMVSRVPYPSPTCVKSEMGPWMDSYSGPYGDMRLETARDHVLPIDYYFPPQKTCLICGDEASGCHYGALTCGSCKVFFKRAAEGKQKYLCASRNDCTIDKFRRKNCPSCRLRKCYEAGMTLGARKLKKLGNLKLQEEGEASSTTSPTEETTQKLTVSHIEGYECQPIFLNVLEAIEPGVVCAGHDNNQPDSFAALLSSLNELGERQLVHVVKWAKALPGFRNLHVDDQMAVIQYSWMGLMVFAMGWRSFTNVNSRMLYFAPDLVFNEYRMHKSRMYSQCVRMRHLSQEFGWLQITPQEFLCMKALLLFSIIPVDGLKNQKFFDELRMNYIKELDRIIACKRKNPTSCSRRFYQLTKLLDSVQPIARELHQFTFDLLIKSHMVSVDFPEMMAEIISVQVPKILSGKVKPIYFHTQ
Test: co-immunoprecipitation (Ni-NTA pull-down of His-SREBF1, immunoblot with FLAG antibody), band quantification
Details: chain shown with the change, HEK293T cells

B1: His-tagged SREBF1 (wild type), expressed in HEK293T cells, P36956 Y673A; Y951A (protein)
chain: MDEPPFSEAALEQALGEPCDLDAALLTDIEDMLQLINNQDSDFPGLFDPPYAGSGAGGTDPASPDTSSPGSLSPPPATLSSSLEAFLSGPQAAPSPLSPPQPAPTPLKMYPSMPAFSPGPGIKEESVPLSILQTPTPQPLPGALLPQSFPAPAPPQFSSTPVLGYPSPPGGFSTGSPPGNTQQPLPGLPLASPPGVPPVSLHTQVQSVVPQQLLTVTAAPTAAPVTTTVTSQIQQVPVLLQPHFIKADSLLLTAMKTDGATVKAAGLSPLVSGTTVQTGPLPTLVSGGTILATVPLVVDAEKLPINRLAAGSKAPASAQSRGEKRTAHNAIEKRYRSSINDKIIELKDLVVGTEAKLNKSAVLRKAIDYIRFLQHSNQKLKQENLSLRTAVHKSKSLKDLVSACGSGGNTDVLMEGVKTEVEDTLTPPPSDAGSPFQSSPLSLGSRGSGSGGSGSDSEPDSPVFEDSKAKPEQRPSLHSRGMLDRSRLALCTLVFLCLSCNPLASLLGARGLPSPSDTTSVYHSPGRNVLGTESRDGPGWAQWLLPPVVWLLNGLLVLVSLVLLFVYGEPVTRPHSGPAVYFWRHRKQADLDLARGDFAQAAQQLWLALRALGRPLPTSHLDLACSLLWNLIRHLLQRLWVGRWLAGRAGGLQQDCALRVDASASARDAALVAHKLHQLHTMGKHTGGHLTATNLALSALNLAECAGDAVSVATLAEIYVAAALRVKTSLPRALHFLTRFFLSSARQACLAQSGSVPPAMQWLCHPVGHRFFVDGDWSVLSTPWESLYSLAGNPVDPLAQVTQLFREHLLERALNCVTQPNPSPGSADGDKEFSDALGYLQLLNSCSDAAGAPAYSFSISSSMATTTGVDPVAKWWASLTAVVIHWLRRDEEAAERLCPLVEHLPRVLQESERPLPRAALHSFKAARALLGCAKAESGPASLTICEKASGALQDSLATTPASSSIDKAVQLFLCDLLLVVRTSLWRQQQPPAPAPAAQGTSSRPQASALELRGFQRDLSSLRRLAQSFRPAMRRVFLHEATARLMAGASPTRTHQLLDRSLRRRAGPGGKGGAVAELEPRPTRREHAEALLLASCYLPPGFLSAPGQRVGMLAEAARTLEKLGDRRLLHDCQQMLMRLGGGTTVTSS
response (+ DHT, parent: 0.9): 3.7 | response (without DHT, parent: 0.1): 0.3

Reference: publication PMC10256812
